PMC3713617
Residue numbers refer to the chain shown, from its start. Like-named read-outs stand apart in the source and are kept apart here.

What was measured:
[1] = biological target: Helicobacter pylori ferric uptake regulator, wildtype (HpFurWT) (H. pylori) (UniProt O25671); assay: cross-linking
HpFurE5A [2] = biological target: T1, HpFurE5A (Helicobacter pylori, UniProt O25671 1-150, E5A); assay: fluorescence anisotropy
T1 sequence: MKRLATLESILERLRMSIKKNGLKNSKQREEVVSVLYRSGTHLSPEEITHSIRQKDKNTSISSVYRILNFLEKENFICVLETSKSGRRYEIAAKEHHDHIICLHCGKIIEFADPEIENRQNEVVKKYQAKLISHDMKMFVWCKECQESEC

HpFurA92T [3] = biological target: T2, HpFurA92T (Helicobacter pylori, UniProt O25671 1-150, A92T); assay: fluorescence anisotropy
T2 sequence: T1 sequence with A5E, A92T

HpFurWT [4] = biological target: T3, HpFurWT (Helicobacter pylori, UniProt O25671 1-150); assay: fluorescence anisotropy
T3 sequence: T1 sequence with A5E

HpFurH134Y [5] = biological target: T4, HpFurH134Y (Helicobacter pylori, UniProt O25671 1-150, H134Y); assay: fluorescence anisotropy
T4 sequence: T1 sequence with A5E, H134Y

HpFurA92T [6] = biological target: T2, HpFurA92T; assay: competition
HpFurA92T [7] = biological target: T2, HpFurA92T; assay: fluorescence anisotropy; remark: listed apart in the source
HpFurWT [8] = biological target: T3, HpFurWT; assay: fluorescence anisotropy; remark: listed apart in the source
HpFurH134Y [9] = biological target: T4, HpFurH134Y; assay: fluorescence anisotropy; remark: listed apart in the source
HpFurE5A [10] = biological target: T1, HpFurE5A; assay: competition

Question: Which stoichiometry N [1] does the source give for “Helicobacter pylori ferric uptake regulator, wildtype (HpFurWT) (from UniProt O25671 1-150) (natural protein)” here?
Answer: 2

B1: amiE Fur box duplex (dsDNA)
DNA 1: TGCCCCAATAATCATAATGATTAA
DNA 2: TTAATCATTATGATTATTGGGGCA
Question: B1 was tested. Which Kd (HpFurE5A [2]) did it give?
Answer: 2 ± 1 nM

Question: And the Kd (HpFurA92T [3])?
Answer: 15 ± 2 nM

Question: And the Kd (HpFurWT [4])?
Answer: 16 ± 2 nM

Question: And the Kd (HpFurH134Y [5])?
Answer: 6 ± 1 nM

B2: pfr scrambled (GT repeats) (dsDNA)
DNA 1: TTCATTAGTGTGTATGCTAT
DNA 2: ATAGCATACACACTAATGAA
Question: Does B2 bind (HpFurA92T [6])?
Answer: no binding

B3: pfr apo-Fur binding site duplex (dsDNA)
DNA 1: TTCATTATCATTTATGCTAT
DNA 2: ATAGCATAAATGATAATGAA
Question: How did the Kd (HpFurA92T [7]) turn out when B3 was run?
Answer: 13 ± 1 nM

Question: And the Kd (HpFurWT [8])?
Answer: 43 ± 2 nM

Question: And the Kd (HpFurH134Y [9])?
Answer: 8 ± 1 nM

B4: amiE Fur box scrambled (GT repeats) (dsDNA)
DNA 1: TGCCCCGTGTGTGTGTGTGTATTAA
DNA 2: TTAATACACACACACACACGGGGCA
Question: Does B4 bind (HpFurE5A [10])?
Answer: no binding
